Data on one molecule can be found in patent publication US20230414780A1.

Assay [1] deals with murine TfR expressed by murine neuroblastoma Neuro-2a cells (mouse) (UniProt Q62351). Description: cell-based or functional assay.
Assay [2] has the same target. The experiment in a line: competition with C5-Alexa680 (100 nM) on living Neuro-2a cells, 3 hrs at 37 C, flow cytometry; Ki/app, mean ± SD.

Chain of murine TfR expressed by murine neuroblastoma Neuro-2a cells (mouse) (Q62351 whole entry): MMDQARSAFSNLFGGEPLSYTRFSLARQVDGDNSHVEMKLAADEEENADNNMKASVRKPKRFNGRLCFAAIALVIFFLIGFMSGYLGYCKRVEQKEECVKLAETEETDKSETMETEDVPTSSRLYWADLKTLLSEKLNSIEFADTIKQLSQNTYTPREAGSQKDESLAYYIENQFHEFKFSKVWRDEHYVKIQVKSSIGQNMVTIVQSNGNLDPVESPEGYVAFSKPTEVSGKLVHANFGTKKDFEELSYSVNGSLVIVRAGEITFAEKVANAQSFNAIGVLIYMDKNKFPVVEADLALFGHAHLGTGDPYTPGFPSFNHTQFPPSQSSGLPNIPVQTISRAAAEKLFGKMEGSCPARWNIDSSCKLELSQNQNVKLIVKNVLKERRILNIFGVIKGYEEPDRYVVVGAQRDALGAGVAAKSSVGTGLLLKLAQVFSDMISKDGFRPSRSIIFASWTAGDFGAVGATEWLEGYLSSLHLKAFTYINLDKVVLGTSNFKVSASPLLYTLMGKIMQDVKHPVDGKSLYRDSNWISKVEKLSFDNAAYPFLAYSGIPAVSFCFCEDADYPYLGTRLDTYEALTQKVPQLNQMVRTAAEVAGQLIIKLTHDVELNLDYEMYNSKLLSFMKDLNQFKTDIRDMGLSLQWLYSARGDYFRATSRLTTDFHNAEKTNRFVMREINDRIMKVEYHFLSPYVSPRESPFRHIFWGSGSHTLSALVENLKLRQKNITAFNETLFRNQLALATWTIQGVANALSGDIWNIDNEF

B1: C5-hFc-siSOD1m-5'VP (Fc fusion, part only; not given: Fc knob and hole arms, part only)
chain, part: EVQLVESGGGVVQPGGSLKLSCVASGTDFSINFIRWYRQAPGKQREFVAGFTATGNTNYADSMKGRFTISRDNTKNAVYLQIDSLKPEDTAVYYCYMLDKWGQGTQVTVSS
In turn, B1 had an IC50 of mSOD1 mRNA downregulation, free uptake on Neuro-2a cells in assay [1] of 8.7 nM. Besides, in assay [2], the Ki was determined as 494 nM.
